Measured values as given in paper PMC3101288.

Target: HlmI (thioredoxin-disulfide oxidoreductase-like dithiol oxidase of the holomycin gene cluster) (Streptomyces clavuligerus)
Test: SEC

Question: For “HlmI (thioredoxin-disulfide oxidoreductase-like dithiol oxidase of the holomycin gene cluster) (enzyme)”, which stoichiometry N is on record?
Answer: 2
